The data set concerns Saccharomyces cerevisiae. The experiment in a line: protein stability index of tFT-peptide fusion (C-terminal peptide) (PSI (0-1 scale)); higher = more stable (slower turnover). Conditions: temperature: 30 C. The protocol: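 MPS profiling in S. cerevisiae of the yeast C-terminome library: the last 12 aa of each annotated ORF are fused to the C-terminus of a sfGFP-mCherry timer, after a GGGS linker. Cells are FACS-sorted into 8 mCherry/sfGFP bins and deep-sequenced. PSI runs from 0 (unstable) to 1 (stable); wild type and das1Δ backgrounds, two technical replicates each.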

[1] abbreviates: genetic background: das1 deletion.

± gives the standard deviation of the averaged measurements.

In the case of FRLQEEQTNMRS [MSM1 C-terminal 12 aa], the protein stability index runs as follows: under setting [1], 0.713 ± 0.02; (genetic background: wild type) 0.758 ± 0.02.
Take “FRQSWQIDIGTW [YAL037C-B C-terminal 12 aa]”: the protein stability index was 0.7097 ± 0.0042 under setting [1] and 0.676 ± 0.017 (genetic background: wild type).
On the same counts, the results for “FRVVLNAQLNIQ [YOR108C-A C-terminal 12 aa]” are 0.69 ± 0.036 and 0.674 ± 0.006.
Take FSAVSSWLSFIF [YNL046W C-terminal 12 aa]: the protein stability index is, setting by setting: under setting [1], 0.772 ± 0.033; (genetic background: wild type) 0.725 ± 0.013.
The corresponding values for FSCHSFEYLARR [YDR401W C-terminal 12 aa] are 0.701 ± 0.013 and 0.677 ± 0.047.
On the same counts, the results for FSDLFSYSKSLV [ENT5 C-terminal 12 aa] are 0.705 ± 0.04 and 0.744 ± 0.013.
For FSSSRDDISFDI [DRS2 C-terminal 12 aa], the protein stability index turned out to be 0.7 ± 0.023 under setting [1] and 0.664 ± 0.0014 (genetic background: wild type).
With FTDDSGTIKQEE [CMR1 C-terminal 12 aa], the protein stability index was found to be 0.713 ± 0.0073 under setting [1] and 0.703 ± 0.026 (genetic background: wild type).
The corresponding values for FTNEIINKLSTM [IDH1 C-terminal 12 aa] are 0.692 ± 0.052 and 0.5514 ± 0.0019.
The corresponding values for FTVKANSQSESA [GRX7 C-terminal 12 aa] are 0.6758 ± 0.0034 and 0.694 ± 0.027.
In the case of “FVFVRYFNYADS [YCR081C-A C-terminal 12 aa]”, the protein stability index reads like this: under setting [1], 0.631 ± 0.023; (genetic background: wild type) 0.622 ± 0.011.
As to FVLKCIKDMYAK [IRC25 C-terminal 12 aa], the protein stability index stood at 0.682 ± 0.018 under setting [1] and 0.681 ± 0.017 (genetic background: wild type).
On the same counts, the results for FVSSDPGLTQWL [HNT2 C-terminal 12 aa] are 0.745 ± 0.014 and 0.713 ± 0.0078.
The corresponding values for FVVKEGLLKNRK [GTF1 C-terminal 12 aa] are 0.701 ± 0.027 and 0.7 ± 0.024.
With FYDLWDAYEDDS [GDB1 C-terminal 12 aa], the protein stability index stood at 0.751 ± 0.028 under setting [1] and 0.704 ± 0.013 (genetic background: wild type).
On the same counts, the results for FYPVTSEFSKNK [HOB2 C-terminal 12 aa] are 0.7 ± 0.039 and 0.767 ± 0.013.
For GAGAFAVGALLL [NCW2 C-terminal 12 aa], the protein stability index is, setting by setting: under setting [1], 0.7034 ± 0.0019; (genetic background: wild type) 0.687 ± 0.026.
As for GALALGLISYLL [FIT2 C-terminal 12 aa], the protein stability index by setting is: under setting [1], 0.695 ± 0.007; (genetic background: wild type) 0.686 ± 0.014.
On the same counts, the results for GALPTTDPLFQW [YJL043W C-terminal 12 aa] are 0.7371 ± 0.0031 and 0.704 ± 0.0071.
The corresponding values for GAPSLYSYLLCL [IRC2 C-terminal 12 aa] are 0.684 ± 0.0082 and 0.487 ± 0.019.
Regarding GAVVAGAAALLL [TIP1 C-terminal 12 aa], the protein stability index reads like this: under setting [1], 0.729 ± 0.024; (genetic background: wild type) 0.709 ± 0.032.
With GCGEDLKKDILS [DOP1 C-terminal 12 aa], the protein stability index by setting is: under setting [1], 0.71 ± 0.017; (genetic background: wild type) 0.668 ± 0.024.
The corresponding values for GCVLGKLGYLKM [RAD33 C-terminal 12 aa] are 0.719 ± 0.024 and 0.619 ± 0.07.
For the sequence GDDESRPRKMRR [BMS1 C-terminal 12 aa], the protein stability index is, setting by setting: under setting [1], 0.678 ± 0.0091; (genetic background: wild type) 0.674 ± 0.012.
The corresponding values for GDDPYAEYFQDF [TPK2 C-terminal 12 aa] are 0.735 ± 0.01 and 0.717 ± 0.039.
Consider GEAVPEPVEEES [SEC27 C-terminal 12 aa], for which the protein stability index by setting is: under setting [1], 0.698 ± 0.013; (genetic background: wild type) 0.691 ± 0.043.
As to “GFRPECLYYYIK [YPR016W-A C-terminal 12 aa]”, the protein stability index is, setting by setting: under setting [1], 0.5801 ± 0.0036; (genetic background: wild type) 0.564 ± 0.024.
On the same counts, the results for GGPPKVNKDIIS [HAT2 C-terminal 12 aa] are 0.708 ± 0.035 and 0.6995 ± 0.006.
The corresponding values for GIGFFAVCFERD [RCM1 C-terminal 12 aa] are 0.6906 ± 0.0028 and 0.664 ± 0.012.
GKCTSSKFKLSS [KRE6 C-terminal 12 aa]: the protein stability index reads like this: under setting [1], 0.71 ± 0.026; (genetic background: wild type) 0.619 ± 0.024.
The corresponding values for GKNGARLSEIGW [SNZ2 C-terminal 12 aa] are 0.7224 ± 0.0061 and 0.691 ± 0.025.
Take GKNKKKSKHSKK [PRP43 C-terminal 12 aa]: the protein stability index under setting [1] came out at 0.702 ± 0.057 and the protein stability index (genetic background: wild type) was 0.651 ± 0.0029.
On the same counts, the results for GLDPEELEDLVT [PDS1 C-terminal 12 aa] are 0.688 ± 0.011 and 0.7032 ± 0.0028.
Take GLEFVASRSASS [MDH2 C-terminal 12 aa]: the protein stability index was found to be 0.692 ± 0.014 under setting [1] and 0.729 ± 0.033 (genetic background: wild type).
Take GLNKNMLKKIIK [YPR084W C-terminal 12 aa]: the protein stability index under setting [1] came out at 0.715 ± 0.032 and the protein stability index (genetic background: wild type) worked out at 0.668 ± 0.03.
As for GLQNRLARNNEK [MRP4 C-terminal 12 aa], the protein stability index by setting is: under setting [1], 0.734 ± 0.018; (genetic background: wild type) 0.6607 ± 0.0019.
On the same counts, the results for GLQVMNEMKQRW [ECM25 C-terminal 12 aa] are 0.7091 ± 0.0069 and 0.724 ± 0.053.
On the same counts, the results for GMLGLSALLGGE [SEC11 C-terminal 12 aa] are 0.687 ± 0.019 and 0.678 ± 0.016.
The corresponding values for GNLPQPVFQPLL [VHR1 C-terminal 12 aa] are 0.701 ± 0.0019 and 0.6795 ± 0.0033.
Take GQLTTDEETCIE [RTR2 C-terminal 12 aa]: the protein stability index came to 0.6793 ± 0.0044 under setting [1] and 0.726 ± 0.034 (genetic background: wild type).
Sequence GRDCISKRAILE [IMP2 C-terminal 12 aa] yielded a protein stability index under setting [1] of 0.7067 ± 0.0024 and a protein stability index (genetic background: wild type) of 0.6702 ± 0.004.
The corresponding values for GRGLLGCRIQEL [NAS2 C-terminal 12 aa] are 0.703 ± 0.012 and 0.681 ± 0.032.
The corresponding values for GSESILTAKQPI [OCA2 C-terminal 12 aa] are 0.706 ± 0.0075 and 0.685 ± 0.009.
Sequence GSNNRGYTLIDL [ENT1 C-terminal 12 aa] displayed a protein stability index under setting [1] of 0.698 ± 0.015 and a protein stability index (genetic background: wild type) of 0.736 ± 0.029.
In the case of GTDLLKENRNCS [YML096W C-terminal 12 aa], the protein stability index came out at 0.669 ± 0.0067 under setting [1] and 0.6895 ± 0.0012 (genetic background: wild type).
Turning to GTVDEIIKFLSE [YTA7 C-terminal 12 aa], the protein stability index by setting is: under setting [1], 0.725 ± 0.023; (genetic background: wild type) 0.736 ± 0.066.
In the case of GVLLILASALFT [ZRT3 C-terminal 12 aa], the protein stability index runs as follows: under setting [1], 0.3294 ± 0.0016; (genetic background: wild type) 0.341 ± 0.0088.
On the same counts, the results for GVSTGYEKIRYI [FUI1 C-terminal 12 aa] are 0.734 ± 0.012 and 0.31 ± 0.025.
On the same counts, the results for GVVKFNSEHYRD [SAP185 C-terminal 12 aa] are 0.721 ± 0.045 and 0.668 ± 0.034.
Consider GWLQDSNFTKYL [FUN19 C-terminal 12 aa], for which the protein stability index was found to be 0.6978 ± 0.0056 under setting [1] and 0.808 ± 0.13 (genetic background: wild type).
The corresponding values for GWQTGALIIKKH [SAF1 C-terminal 12 aa] are 0.729 ± 0.0083 and 0.763 ± 0.11.
The corresponding values for GYDTVASLDFWG [ROM2 C-terminal 12 aa] are 0.742 ± 0.018 and 0.761 ± 0.047.
On the same counts, the results for GYEDGTIKLNKI [ASA1 C-terminal 12 aa] are 0.697 ± 0.033 and 0.682 ± 0.018.
For the sequence HAEFHARNLGLI [YJL068C C-terminal 12 aa], the protein stability index worked out at 0.7036 ± 0.0021 under setting [1] and 0.686 ± 0.023 (genetic background: wild type).
For HGGNISSSTYQA [GND2 C-terminal 12 aa], the protein stability index by setting is: under setting [1], 0.698 ± 0.02; (genetic background: wild type) 0.722 ± 0.054.
For the sequence HHVESVCIMKRI [TRM2 C-terminal 12 aa], the protein stability index amounted to 0.668 ± 0.014 under setting [1] and 0.675 ± 0.034 (genetic background: wild type).
For HPCTSLTSVIVV [YGL072C C-terminal 12 aa], the protein stability index was 0.36 ± 0.045 under setting [1] and 0.433 ± 0.051 (genetic background: wild type).
Consider HSRNPKRSSTTL [TRK1 C-terminal 12 aa], for which the protein stability index worked out at 0.737 ± 0.034 under setting [1] and 0.767 ± 0.069 (genetic background: wild type).
HTPSLKTWSTIK [FKS1 C-terminal 12 aa] registered a protein stability index under setting [1] of 0.7108 ± 0.0063 and a protein stability index (genetic background: wild type) of 0.711 ± 0.019.
As to HVDKRTKIDQEA [ISW2 C-terminal 12 aa], the protein stability index was 0.702 ± 0.056 under setting [1] and 0.681 ± 0.016 (genetic background: wild type).
For HWQYMKDYLNLY [SLI1 C-terminal 12 aa], the protein stability index by setting is: under setting [1], 0.715 ± 0.033; (genetic background: wild type) 0.684 ± 0.06.
On the same counts, the results for IAEGKSLGIIGA [HXK1 C-terminal 12 aa] are 0.6923 ± 0.0061 and 0.686 ± 0.034.
“IAPSGKYYFPFG [YMR031W-A C-terminal 12 aa]” came in with a protein stability index under setting [1] of 0.718 ± 0.011 and a protein stability index (genetic background: wild type) of 0.684 ± 0.011.
The corresponding values for IARSRRAFLSKL [MRP7 C-terminal 12 aa] are 0.843 ± 0.018 and 0.846 ± 0.089.
The corresponding values for IDASKDQDTMME [NUG1 C-terminal 12 aa] are 0.693 ± 0.019 and 0.736 ± 0.068.
Take IDEFYECLQDQQ [DCN1 C-terminal 12 aa]: the protein stability index turned out to be 0.704 ± 0.0073 under setting [1] and 0.721 ± 0.013 (genetic background: wild type).
Consider “IDKFLNSAVLSA [YMR307C-A C-terminal 12 aa]”, for which the protein stability index reads like this: under setting [1], 0.5813 ± 0.0033; (genetic background: wild type) 0.637 ± 0.017.

For the origin of these results see the supplement of paper PMC10724198.
